Reference: patent US20130101595A1

Assays:
[1] = biological target: recombinant human IL-18 (rhIL-18) (human) (UniProt Q14116); assay: SPR (BIAcore), biotinylated rhIL-18 on streptavidin chip, antibody in solution
[2] = biological target: recombinant human IL-18 (rhIL-18) (human) (UniProt Q14116); assay: cell-based or functional assay

B1: 125-2H (antibody, from another filing, V domains shown)
VH: EIQLQQSGPELVKPGASVKVSCKASGYSFTDYFIYWVKQSHGKSLEWIGDIDPYNGDTSYNQKFRDKATLTVDQSSTTAFMHLNSLTSEDSAVYFCARGLRFWGQGTLVTVSA
VL: DIQMTQSPSSLSASLGERVSLTCRASQDIGSKLYWLQQEPDGTFKRLIYATSSLDSGVPKRFSGSRSGSDYSLTISSLESEDFVDYYCLQYASSPYTFGGGTKLAIKR
Kd [1]: 0.62 nM
koff [1]: 0.00011 s⁻¹
kon [1]: 170000 M⁻¹ s⁻¹
IC50 Value, KG-1 cell-based IL-18 neutralization assay (hIFN-gamma) [2]: 0.2 nM
